Key:
[1] = Screening of additives in denaturation/renaturation with SDS; type: physicochemical
Method: Additives in de-/renaturation included the following. The effects of the following additives on denaturation and renaturation of BCA and BCA-Ac18 were screened: poly(ethelyneglycol) (PEG, MW=2000), 0.1 mM, 1 mM; poly(vinylpyrrolidone), MW=10 000, 1%, 10% w/v; 3-(3-cholamidopropyl)dimethylammoniopropane sulfonate (CHAPS), 1 mM; octanol, 1 mM; tetrabutylammonium thiocyanate, 100 mM; sodium thiocyanate, 100 mM, 1 M; sodium sulfate, 10 mM; betaine, 1 M; dimethyl sulfoxide (DMSO), 1%, 10% v/v; N-methylpyrrolidone, 1%, 10% v/v. The screening was performed in a 96-well plate format, using a SpectraMax Gemini XS spectrometer (Molecular Devices), with a protein concentration of 100 nM, a DNSA concentration of 10 micromolar (present in the denaturation/renaturation buffers), and variable concentrations of SDS.
In some experiments, various additives were used to prevent aggregation of BCA and BCA-Ac18. These additives were commonly used to prevent aggregation of carbonic anhydrases and other proteins. The additives included polymers (PEG), other surfactants (CHAPS), “salting-in” Hofmeister salts (tetrabutylammonium thiocyanate and sodium thiocyanate), osmolytes (betaine), and organic solvents (dimethyl sulfoxide and N-methylpyrrolidone). […] For example, in 10% DMSO, it was observed that refolding of BCA up to 1.2 mM SDS (vs. 0.7 mM SDS without a cosolvent), but unfolding up to 2.5 mM SDS was not observed.

[2] = Dynamic light scattering, hydrodynamic radius; type: physicochemical
Method: Dynamic light scattering (DLS) measurements were performed on a DynaPro light scattering device (Wyatt Technology Corp.), at protein concentrations of […].
Dynamic light scattering was also used to measure the sizes of the folded and unfolded protein and of the presumably aggregated sample. The hydrodynamic radius of the native BCA (2.7±0.7 nm), and of BCA, refolded in 0.1 mM SDS (2.6±0.6 nm), were measured. BCA was denatured in 10 mM SDS, and diluted to 1.8 mM SDS, a concentration at which no refoldings were observed immediately before the measurement. […] The small increase in the hydrodynamic radius of the incubated sample is indicative of the formation of low-order aggregates (e.g., dimers or trimers), but the resolution of DLS measurements was not sufficient to observe each species individually.

Substance: bovine carbonic anhydrase II [BCA]
- highest SDS concentration at which refolding was observed ([1]; 1 mM CHAPS): up to 1.8 mM
- SDS concentration needed for unfolding ([1]; 1 mM CHAPS, unfolding did not occur below this concentration): ≥ 2.5 mM
- highest SDS concentration at which refolding was observed ([1]; 10% DMSO): up to 1.2 mM
- SDS concentration needed for unfolding ([1]; 10% DMSO, unfolding up to this concentration not observed): > 2.5 mM
- highest SDS concentration at which refolding was observed ([1]; without a cosolvent): ≤ 0.7 mM
- hydrodynamic radius ([2]; denatured in 10 mM SDS, diluted to 1.8 mM SDS immediately before measurement): 2.9±0.6 nm
- hydrodynamic radius ([2]; denatured, incubated in 1.8 mM SDS for one week): 3.6±0.9 nm
- hydrodynamic radius ([2]; native protein): 2.7±0.7 nm
- hydrodynamic radius ([2]; refolded in 0.1 mM SDS): 2.6±0.6 nm

From patent publication US20080113421A1, “Stabilizing proteins against denaturation and inactivation by charged detergents using chemical modifications, including modifications that increase net charge” (President and Fellows of Harvard College, priority 2006, published 2008)
